Laboratory results from patent publication US9664676B2, “RNA sequences that induce fluorescence of small molecule fluorophores” (Cornell University, priority 2013, dated 2017).

Columns and labels:
[1] = taken from Song et al.; cited from earlier work
[2] = system: (CGG)60-Spinach2 foci; assay: Effects of drugs on CGG RNA foci in COS-7 cells expressing (CGG)60-Spinach2; type: cell-based
Procedure: Transfection of COS-7 Cells and Live Cell Imaging: COS-7 cells (ATCC-CRL-1651) were cultured and passaged in DMEM supplemented with 50 units of penicillin and 50 μg of streptomycin per milliliter. For imaging experiments, cells were grown on cells cultured on 24-well glass-bottom dishes and transfected with 0.6 μg of pCDNA-60CGG-Spinach or pCDNA-60CGG-Spinach2 using FuGeneHD (Roche) per the manufacturer's instructions in DMEM medium lacking penicillin and streptomycin. Cells were imaged in CO2-independent medium (Invitrogen) supplemented with L-glutamine. At 30 min-1 h before imaging, medium was supplemented with 25 mM HEPES, 5 mM MgSO4, 1 μg/ml Hoechst 33342 (when appropriate) and 20 μM DFHBI or vehicle. Live fluorescence images were acquired in a temperature-controlled chamber at 35-37° C. with a CoolSnap HQ2 CCD camera through a 60× oil objective (Plan Apo 1.4 numerical aperture (NA)) mounted on a Nikon TE2000 epifluorescence microscope and analyzed with the NIS-Elements software. Spinach was imaged with a filter cube typically used for fluorescein or EGFP, with a sputter-coated excitation filter 470/40 nm, dichroic mirror 495 nm (long-pass), and emission filter 525/50 (Chroma Technology). DsRed-Max and mCherry were imaged using a filter cube typically used for Texas Red, with a sputter coated excitation filter 560/40 nm and emission filter 630/75 nm (Chroma Technology). Background intensity was subtracted from all pixel intensity measurements. Image analyses were completed with NIS-Elements AR 3.2 (Nikon). Drug treatments were carried out as specified. Tautomycin was used at a final concentration of 5 μM in all cases. 1a was used at a final concentration 20 μM in all cases. DMSO was added to a final concentration of 0.1% for vehicle treatments.

[3] = Folding assay (fraction of RNA folded, DFHBI); type: physicochemical
Procedure: Folding Assay: The folding assay involves measurement of fluorescence under two conditions, one in which RNA is in excess relative to DFHBI, and one in which the DFHBI is in excess relative to RNA. As Spinach and DFHBI form a 1:1 stoichiometric complex, the maximum amount of complex that can be formed is determined by the limiting component. In the first condition, the fluorescence was determined by incubation of 0.1 μM DFHBI and 100-fold excess (10 μM) Spinach. This value was used to define the fluorescence of 0.1 μM Spinach-DFHBI complex. It was assumed that even if nearly all Spinach is misfolded or unfolded, there will be enough properly folded Spinach to stoichiometrically bind 0.1 μM DFHBI. This was confirmed by measuring fluorescence after doubling the RNA to 20 μM, which caused no increase in fluorescence. In the second condition, the fluorescence obtained using 10 μM DFHBI and 0.1 μM Spinach was measured. In theory, up to 0.1 μM Spinach-DFHBI can form if all the Spinach is folded. However, if a portion of Spinach is unfolded, the fluorescence will be proportionately less than the fluorescence of 0.1 μM Spinach-DFHBI. Thus, this approach can reveal the fraction of Spinach that is folded under diverse conditions.
Fluorescence was measured for each RNA under the following conditions: (i) 0.1 μM RNA and 10 μM DFHBI, and (ii) 0.1 μM DFHBI and 10 μM RNA. For each condition, the signal from DFHBI without RNA was subtracted from each signal. Fluorescence was measured in 20 mM HEPES pH 7.4, 100 mM KCl and 1 mM MgCl2 at the designated temperature. Fluorescence measurements were performed using a PerkinElmer LS-55 fluorescence spectrometer using the following instrument parameters: excitation wavelength, 460 nm; emission wavelength, 501 nm; slit widths, 10 nm. Signal from the first condition (limiting RNA) was divided by the signal from the second condition (limiting dye) to determine the fraction folded.

[4] = In vitro fluorescence (brightness) of Spinach RNAs, mutants and flanked/fused constructs with DFHBI; type: biochemical; conditions: for Percent Brightness (at 42° C.): percent of signal remaining at 42 °C for a given mutant; for Relative Brightness (at 25° C.): relative to Spinach
From the text: Preparation and Analysis of Spinach and Spinach Mutants: RNAs were created by using the appropriate single-stranded DNA templates (Integrated DNA Technologies) and PCR amplification using primers that included a 5′ T7 promoter sequence to generate double-stranded DNA templates. PCR products were then purified with PCR purification columns (Qiagen) and used as templates for in vitro T7 transcription reactions (Epicentre) as described previously (Paige et al., “RNA mimics of green fluorescent protein,” Science 333: 642-646 (2011), which is hereby incorporated by reference in its entirety). RNA was purified using ammonium acetate precipitation, and quantified using both absorbance values and the Riboquant Assay kit (BD Biosciences). Photophysical characterization of Spinach2 was carried out as previously described (Paige et al., “RNA mimics of green fluorescent protein,” Science 333: 642-646 (2011), which is hereby incorporated by reference in its entirety).
Preparation and In Vitro Analysis of Flanked Spinach and Spinach2 Constructs: Spinach and Spinach2 constructs flanked on either side by 50 base pairs were generated by PCR. For Spinach, the following primers were used:
The 50-base-pair sequences were taken from the human β-actin 3′ untranslated region. Both forward primers encode the T7 RNA polymerase promoter for in vitro transcription. 5S-Spinach and 5S-Spinach2 were amplified by PCR from pAV-5S-Spinach and pAV-5S-Spinach2, respectively, using the following primers: […]
PCR products were used as templates for in vitro transcription by Ampliscribe T7 RNA polymerase as previously described (Paige et al., “RNA mimics of green fluorescent protein,” Science 333: 642-646 (2011), which is hereby incorporated by reference in its entirety). Fluorescence measurements were recorded for 0.1 μM RNA in the presence of 10 μM DFHBI in buffer composed of 20 mM HEPES pH 7.4, 100 mM KCl and […] as described above.
Next, systematic mutagenesis was carried out to identify thermostable Spinach mutants with improved folding. Because elevated G+C content can lead to stable misfolded structures (Kiliszek et al., “Crystal Structures of CGG RNA Repeats with Implications for Fragile X-Associated Tremor Attaxia Syndrome,” Nuc. Acids Res. 39:7308-7315 (2011); Sobczak et al., “RNA Structure of Trinucleotide Repeats Associated with Human Neurological Diseases,” Nuc. Acids Res. 31:5469-5482 (2003), each of which is hereby incorporated by reference in its entirety), it was reasoned that decreasing the overall G+C content could promote proper folding. Scanning mutagenesis was carried out, mutating every […] and cytosine to adenosine or uracil, respectively. In regions where G and C residues were predicted to form a base pair, both residues were mutated to A and U, to maintain the complementarity. Each of these 35 mutants was synthesized in vitro, and the fraction folded was measured at 25° C. and 42° C. Fluorescence signals that were equal to or greater than Spinach at 25° C. indicated equal or greater percent folded. A higher percentage signal at 42° C. indicated improved thermostability relative to Spinach.

[5] = Thermostability measurements of Spinach RNAs with DFHBI; type: physicochemical; conditions: fluorescence of RNA-DFHBI complex in vitro, 20-60 °C; ±s.e.m.
Procedure: Thermostability Measurements: Spinach or Spinach2 (1 μM) was incubated in 20 mM HEPES pH 7.4, 100 mM KCl, 1 mM MgCl2 and 10 μM DFHBI. Fluorescence values were recorded in 1° C. increments from 20° C. to 60° C., with a 5-min incubation at each temperature to allow for equilibration. Fluorescence measurements were performed using a PerkinElmer LS-55 fluorescence spectrometer using the following instrument parameters: excitation wavelength, 460 nm; emission wavelength, 501 nm; slit widths, 10 nm. Curves were fitted using the Boltzmann sigmoidal equation in GraphPad Prism 5 software. Values presented are mean and s.e.m. from three independent measurements.

For CC1=N/C(=C\c2cc(F)c(O)c(F)c2)C(=O)N1CC(F)(F)F [DFHBI-1T], the Abs max [1] is given as 423 nm, the Brightness [1] is given as 0.12 and the Em max [1] is given as 495 nm. The Ex max [1] was 426 nm, the Ext. coeff. [1] was 35,400 M^−1cm^−1 and the Quantum yield [1] was 0.00098.

For C=C1[C@@H](O)[C@@H]2O[C@]3(CC[C@H](/C=C/[C@@H](C)[C@@H]4CC(C)=C[C@@]5(O[C@H](C[C@@](C)(O)C(=O)O)CC[C@H]5O)O4)O3)CC[C@H]2O[C@@H]1[C@@H](O)C[C@H](C)[C@H]1O[C@@]2(CCCCO2)CC[C@H]1C [okadaic acid], the “disruption of existing foci” value ([2]; 1a: imaging every 5 min for 2 h, okadaic acid: over 4 h) was “No disruption of foci”.

In the case of CO[C@H]([C@H](O)CC(=O)[C@@H](C)[C@@H](O)CC[C@@H](C)[C@@H]1O[C@]2(CC[C@@H](C)[C@H](CC[C@H](C)C(C)=O)O2)CC[C@@H]1C)[C@H](OC(=O)C[C@@H](O)C1=C(C)C(=O)OC1=O)C(C)C [tautomycin], the “time to disaggregation of existing foci” value ([2]; 5 μM) is reported as 1 h, the “effect on formation of (CGG)60-Spinach2 foci” value ([2]; 20 μM 1a or 5 μM tautomycin) is reported as “prevented formation of (CGG)60-Spinach2 foci” and the nuclei containing foci ([2]; 24 h treatment, 20 μM 1a or 5 μM tautomycin, ±s.e.m.) is reported as 12±4.2%.

B1: Spinach1.2: Spinach mutant with perfect complementarity in stem 1 and stem loop 3, SEQ ID NO: 31 (nucleic acid)
chain: GACGCGACCGAATGAAATGGTGAAGGACGGGTCCAGCCGGCTGCTTCGGCAGCCGGCTTGTTGAGTAGAGTGTGAGCTCCGTAACTGGTCGCGTC
modifications: listed as DNA, chemistry not given here
With B1 the percentage folded ([3]; 25 °C, no tRNA scaffold) was 27±2.1%, the percentage folded ([3]; 37 °C, no tRNA scaffold) was 16±2.3% and the “dimmer than Spinach” value ([4]; 1 μM RNA, 10 μM DFHBI, 25 °C) was 16%. The “Percent Brightness (at 42° C.)” value [4] was 41%, the “Relative Brightness (at 25° C.)” value ([4]; 25 °C) was 0.8 and the “melting temperature (Tm)” value [5] was 38±0.3 °C.

B2: Spinach: RNA aptamer binding DFHBI, SEQ ID NO: 1 (nucleic acid)
chain: GACGCAACUGAAUGAAAUGGUGAAGGACGGGUCCAGGUGUGGCUGCUUCGGCAGUGCAGCUUGUUGAGUAGAGUGUGAGCUCCGUAACUAGUCGCGUC
modifications: listed as RNA, chemistry not given here
Work on B2 yielded a percentage folded ([3]; 25 °C, in the presence of the tRNA (tRNA^Lys3 scaffold)) of 50±3.9%, a percentage folded ([3]; 25 °C, no tRNA scaffold) of 32±4.2% and a percentage folded ([3]; 37 °C, in the presence of the tRNA (tRNA^Lys3 scaffold)) of 24±2.4%. The percentage folded ([3]; 37 °C, no tRNA scaffold) was 13±2.8%, the “fluorescence when fused to the CGG repeat-containing RNA” value [4] was “essentially nonfluorescent” and the “brightness of flanked RNA relative to the same aptamer alone” value ([4]; flanked by 50 nt of RNA on both 5′ and 3′ ends, 0.1 μM RNA) was 20%. For the same molecule, the “Percent Brightness (at 42° C.)” value [4] was 19%, the “Relative Brightness (at 25° C.)” value ([4]; 25 °C) was 1.0 and the “melting temperature (Tm)” value [5] was 34±0.6 °C.

B3: Spinach1.1: Spinach mutant with perfect complementarity in stem 1, SEQ ID NO: 30 (nucleic acid)
chain: GACGCGACCGAATGAAATGGTGAAGGACGGGTCCAGGTGTGGCTGCTTCGGCAGTGCAGCTTGTTGAGTAGAGTGTGAGCTCCGTAACTGGTCGCGTC
modifications: listed as DNA, chemistry not given here
For B3, the “brightness compared to Spinach” value ([4]; 1 μM RNA, 10 μM DFHBI, 25 °C) was “as bright as Spinach” and the “melting temperature (Tm)” value [5] was 35±0.5 °C.
